Test results: article doi:10.1101/2024.03.08.584095, “LPOR and the membranes – evolutionary pathway towards prolamellar body formation” (bioRxiv, 2024)

Biological target: the molecule itself
Assay: negative-stain electron microscopy; purified SynPOR with PG lipids and either Chlide + NADPH or Pchlide + NADP+; search for large oligomers; 37 mM sodium phosphate pH 7.1, 225 mM NaCl, 150 mM imidazole, 5 mM beta-mercaptoethanol, 25% glycerol

B1: light-dependent protochlorophyllide oxidoreductase from Synechocystis (SynPOR) (enzyme, UniProt Q59987 1-322, looked up)
chain: MEQPMKPTVIITGASSGVGLYGAKALIDKGWHVIMACRNLDKTQKVADELGFPKDSYTIIKLDLGYLDSVRRFVAQFRELGRPLKALVCNAAVYFPLLDEPLWSADDYELSVATNHLGHFLLCNLLLEDLKACPDADKRLIILGTVTANSKELGGKIPIPAPPDLGNFEGFEAGFKKPIAMINNKKFKSGKAYKDSKLCNMLTTRELHRRFHQETGIVFNSLYPGCVADTPLFRNHYSLFRTIFPWFQKNVTKGYVSQELAGERVAMVVADDKFKDSGVHWSWGNRQQAGREAFVQELSEQGSDAQKAQRMWDLSEKLVGLV
notes: light-dependent protochlorophyllide oxidoreductase (SynPOR), Synechocystis, Uniprot Q59987; The reaction buffer holds 150 mM imidazole, so a His tag is likely (surmise); In the assay it stood with PG liposomes, pigment (Pchlide or Chlide) and NADP+ or NADPH; also called cyanobacterial LPOR; LPOR
binding result: binds
